Source: patent US20180057601A1 (PIERRE FABRE MEDICAMENT, published 2018)

Columns and labels:
[1] = target: T1, Peptide_024; assay: peptide microarray: immobilized 15-mer peptides, Cy5 anti-human IgG; signal as ratio to control antibody ch9G4
T1 construct: immobilized on the microarray
T1 peptide: GFCDMNGKCEKRVQD
Experimental: (§1) Peptide micro array epitope characterization was performed by JPT Peptide Technologies GmbH, Berlin, Germany. In brief the analysis was performed as follows: 32-linear 15-meric peptide sequences representing an overlapping peptide scan (15/12) through the ADAM17 membrane proximal domain were synthesized (Table 5) and immobilized on microarray slides four additional peptides were included by JPT as internal process control spots. Moreover, human IgG and mouse IgG were co-immobilized on the microarray to serve as assay controls. Furthermore, rhADAM17 protein was co-immobilized as an additional control.
(§2) The assay was performed using a Multiwell incubation chamber. Microarrays were incubated with 100 μg/ml 1022C3 or control antibody ch9G4 diluted in blocking buffer (Pierce International, Superblock TBS T20, order No 37536) overnight at 4° C. Microarrays were then incubated with 1 μg/ml Cy5 labelled secondary antibody (anti-human IgG, JIR, 109-175-098) diluted in blocking buffer for 60 min at 30° C. Microarrays were dried. Before each step microarrays were washed with washing buffer (50 mM TBS-buffer, 0.1% Tween20 (v/v), pH 7.2).
(§3) Microarrays were scanned using a high resolution fluorescence scanner. Laser settings and applied resolution were identical for all performed measurements. The resulting images were analyzed and quantified using spot-recognition software GenePix (Molecular Devices). For each spot, the mean signal intensity was extracted (between 0 and 65535 arbitrary units). The ration of signal intensity between 1022C3 and the control antibody ch9G4 was compared between multiple experiments and peptides with a signal three fold higher 1022C3 than ch9G4 were identified (FIG. 3).

[2] = target: T2, Peptide_007; assay: as above
T2 construct: immobilized on the microarray
T2 peptide: CEREQQLESCACNET
Experimental: as §1, §2, §3

[3] = target: T3, Peptide_001; assay: as above
T3 construct: immobilized on the microarray
T3 peptide: DTVCLDLGKCKDGKC
Experimental: as §1, §2, §3

[4] = target: T4, Peptide_014; assay: as above
T4 construct: immobilized on the microarray
T4 peptide: CCRDLSGRCVPYVDA
Experimental: as §1, §2, §3

[5] = target: T5, Peptide_012; assay: as above
T5 construct: immobilized on the microarray
T5 peptide: DNSCKVCCRDLSGRC
Experimental: as §1, §2, §3

[6] = target: T6, Peptide_031; assay: as above
T6 construct: immobilized on the microarray
T6 peptide: DFIDQLSINTFGKFL
Experimental: as §1, §2, §3

[7] = target: T7, Peptide_010; assay: as above
T7 construct: immobilized on the microarray
T7 peptide: CACNETDNSCKVCCR
Experimental: as §1, §2, §3

[8] = target: T8, Peptide_029; assay: as above
T8 construct: immobilized on the microarray
T8 peptide: VIERFWDFIDQLSIN
Experimental: as §1, §2, §3

[9] = target: T9, Peptide_032; assay: as above
T9 construct: immobilized on the microarray
T9 peptide: IDQLSINTFGKFLAD
Experimental: as §1, §2, §3

[10] = target: T10, Peptide_015; assay: as above
T10 construct: immobilized on the microarray
T10 peptide: DLSGRCVPYVDAEQK
Experimental: as §1, §2, §3

[11] = target: T11, Peptide_008; assay: as above
T11 construct: immobilized on the microarray
T11 peptide: EQQLESCACNETDNS
Experimental: as §1, §2, §3

[12] = target: T12, Peptide_026; assay: as above
T12 construct: immobilized on the microarray
T12 peptide: GKCEKRVQDVIERFW
Experimental: as §1, §2, §3

[13] = target: T13, Peptide_023; assay: as above
T13 construct: immobilized on the microarray
T13 peptide: CTVGFCDMNGKCEKR
Experimental: as §1, §2, §3

[14] = target: T14, Peptide_030; assay: as above
T14 construct: immobilized on the microarray
T14 peptide: RFWDFIDQLSINTFG
Experimental: as §1, §2, §3

[15] = target: T15, Peptide_021; assay: as above
T15 construct: immobilized on the microarray
T15 peptide: LRKGKPCTVGFCDMN
Experimental: as §1, §2, §3

[16] = target: T16, Peptide_027; assay: as above
T16 construct: immobilized on the microarray
T16 peptide: EKRVQDVIERFWDFI
Experimental: as §1, §2, §3

[17] = target: T17, Peptide_005; assay: as above
T17 construct: immobilized on the microarray
T17 peptide: GKCIPFCEREQQLES
Experimental: as §1, §2, §3

[18] = target: T18, Peptide_011; assay: as above
T18 construct: immobilized on the microarray
T18 peptide: NETDNSCKVCCRDLS
Experimental: as §1, §2, §3

[19] = target: T19, Peptide_019; assay: as above
T19 construct: immobilized on the microarray
T19 peptide: EQKNLFLRKGKPCTV
Experimental: as §1, §2, §3

[20] = target: T20, Peptide_004; assay: as above
T20 construct: immobilized on the microarray
T20 peptide: CKDGKCIPFCEREQQ
Experimental: as §1, §2, §3

[21] = target: T21, Peptide_022; assay: as above
T21 construct: immobilized on the microarray
T21 peptide: GKPCTVGFCDMNGKC
Experimental: as §1, §2, §3

[22] = target: T22, Peptide_018; assay: as above
T22 construct: immobilized on the microarray
T22 peptide: VDAEQKNLFLRKGKP
Experimental: as §1, §2, §3

[23] = target: T23, Peptide_006; assay: as above
T23 construct: immobilized on the microarray
T23 peptide: IPFCEREQQLESCAC
Experimental: as §1, §2, §3

[24] = target: T24, Peptide_028; assay: as above
T24 construct: immobilized on the microarray
T24 peptide: VQDVIERFWDFIDQL
Experimental: as §1, §2, §3

[25] = target: T25, Peptide_009; assay: as above
T25 construct: immobilized on the microarray
T25 peptide: LESCACNETDNSCKV
Experimental: as §1, §2, §3

[26] = target: T26, Peptide_016; assay: as above
T26 construct: immobilized on the microarray
T26 peptide: GRCVPYVDAEQKNLF
Experimental: as §1, §2, §3

[27] = target: T27, Peptide_025; assay: as above
T27 construct: immobilized on the microarray
T27 peptide: DMNGKCEKRVQDVIE
Experimental: as §1, §2, §3

[28] = target: ADAM17 at the plasma membrane of A431 cells (human, UniProt P78536 215-824); assay: cell-based or functional assay
Sequence of ADAM17 at the plasma membrane of A431 cells (P78536 215-824 limits assumed): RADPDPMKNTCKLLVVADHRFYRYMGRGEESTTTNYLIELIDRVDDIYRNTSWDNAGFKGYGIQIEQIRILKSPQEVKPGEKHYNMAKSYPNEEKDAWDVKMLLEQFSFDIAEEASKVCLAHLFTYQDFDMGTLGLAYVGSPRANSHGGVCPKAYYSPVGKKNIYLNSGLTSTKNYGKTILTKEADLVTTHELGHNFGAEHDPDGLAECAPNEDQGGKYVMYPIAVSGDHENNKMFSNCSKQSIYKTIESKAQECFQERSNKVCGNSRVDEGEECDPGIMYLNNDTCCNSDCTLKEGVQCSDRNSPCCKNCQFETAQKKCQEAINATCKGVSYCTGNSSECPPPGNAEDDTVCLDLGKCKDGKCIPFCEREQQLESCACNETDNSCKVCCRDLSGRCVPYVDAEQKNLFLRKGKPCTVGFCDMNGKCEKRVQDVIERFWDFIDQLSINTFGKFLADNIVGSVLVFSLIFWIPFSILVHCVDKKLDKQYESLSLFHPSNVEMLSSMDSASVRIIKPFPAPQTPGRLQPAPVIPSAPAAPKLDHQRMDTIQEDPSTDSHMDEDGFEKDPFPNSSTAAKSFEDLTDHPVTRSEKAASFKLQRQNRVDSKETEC

B1: hz1022C3 (antibody, V domains shown)
VH: QVQLQESGPGLVKPSETLSLTCTVSGFSLDTSGMGVSWIRQPAGKGLEWIGHIYWDDDKRYNPSLKSRVTMSKDTSSNQVSLKLSSVTAADTAVYYCARRSHFGNYYYAMDYWGQGTTVTVSS
VL: DIQMTQSPSSLSASVGDRVTITCRASQDISSYLNWYQQKPGKAPKLLIFYTSRLQSGVPSRFSGSGSGTDFTLTISSLQPEDFATYYCQQGKTLPLTFGGGTKVEIK
notes: also called mAb hz1022C3; anti-ADAM17 mAb (hz1022C3)
- binding result [1]: no binding (tested: 100 µg/ml)
- binding result [2]: no binding (tested: 100 µg/ml)
- binding result [3]: no binding (tested: 100 µg/ml)
- binding result [4]: no binding (tested: 100 µg/ml)
- binding result [5]: no binding (tested: 100 µg/ml)
- binding result [6]: no binding (tested: 100 µg/ml)
- binding result [7]: no binding (tested: 100 µg/ml)
- binding result [8]: no binding (tested: 100 µg/ml)
- binding result [9]: no binding (tested: 100 µg/ml)
- binding result [10]: no binding (tested: 100 µg/ml)
- binding result [11]: no binding (tested: 100 µg/ml)
- binding result [12]: no binding (tested: 100 µg/ml)
- binding result [13]: no binding (tested: 100 µg/ml)
- binding result [14]: no binding (tested: 100 µg/ml)
- binding result [15]: no binding (tested: 100 µg/ml)
- binding result [16]: no binding (tested: 100 µg/ml)
- binding result [17]: no binding (tested: 100 µg/ml)
- binding result [18]: no binding (tested: 100 µg/ml)
- binding result [19]: no binding (tested: 100 µg/ml)
- binding result [20]: no binding (tested: 100 µg/ml)
- binding result [21]: no binding (tested: 100 µg/ml)
- binding result [22]: no binding (tested: 100 µg/ml)
- binding result [23]: no binding (tested: 100 µg/ml)
- binding result [24]: no binding (tested: 100 µg/ml)
- binding result [25]: no binding (tested: 100 µg/ml)
- binding result [26]: no binding (tested: 100 µg/ml)
- binding result [27]: no binding (tested: 100 µg/ml)
- IC50 of inhibition of cellular shedding of (mutated pro-)TNFα-Nluc [28]: 0.16 nM
- IC50 of inhibition of cellular shedding of AREG-Nluc from A431 cells [28]: 0.16 nM
- IC50 of inhibition of cellular shedding of HB-EGF-Nluc from A431 cells [28]: 0.19 nM
- IC50 of inhibition of cellular shedding of TGFα-Nluc from A431 cells [28]: 0.12 nM
- IC50 of inhibition of cellular shedding, mean of the four substrates [28]: 0.16 nM
